Measured values published in FireProtDB (doi:10.1021/acs.biochem.5b01204).

B1: Sliding clamp, P04525 (parent)
chain: MKLSKDTTALLKNFATINSGIMLKSGQFIMTRAVNGTTYAEANISDVIDFDVAIYDLNGFLGILSLVNDDAEISQSEDGNIKIADARSTIFWPAADPSTVVAPNKPIPFPVASAVTEIKAEDLQQLLRVSRGLQIDTIAITVKEGKIVINGFNKVEDSALTRVKYSLTLGDYDGENTFNFIINMANMKMQPGNYKLLLWAKGKQGAAKFEGEHANYVVALEADSTHDF

Variants of: B1
Settings: Enterobacteria phage T4; pH 7.4; 25 °C; Urea; CD; Sodium Phosphate Buffer; transition: 3; structure 1CZD; whole UniProt chain shown

| Variant | denaturant midpoint (higher = more stable) |
| --- | --- |
| W199F | 1.9 M |

Same assay, conditions: Enterobacteria phage T4; pH 7.4; 25 °C; Urea; CD; Sodium Phosphate Buffer; structure 1CZD; whole UniProt chain shown

| Variant | denaturant midpoint (higher = more stable) |
| --- | --- |
| W92F | 2 M |
